Experimental findings from publication PMC4219604, “C-terminal in Sp1-like artificial zinc-finger proteins plays crucial roles in determining their DNA binding affinity” are described below.

The target of this series is 7ZFP Active-A (artificial (Sp1-derived zinc fingers)). In words: EMSA; EMSA: 25 mM HEPES, 100 mM KCl, 1 mM EDTA, 10 mM MgCl2, 0.1% NP40, 1% glycerol, 1 mM DTT; 30 min on ice; pH not stated. The note with it: protein: recombinant; tags: C-terminal 6xHis; label: biotin; blunt.
Sequence of 7ZFP Active-A (artificial (Sp1-derived zinc fingers)) (chain, as listed by the source): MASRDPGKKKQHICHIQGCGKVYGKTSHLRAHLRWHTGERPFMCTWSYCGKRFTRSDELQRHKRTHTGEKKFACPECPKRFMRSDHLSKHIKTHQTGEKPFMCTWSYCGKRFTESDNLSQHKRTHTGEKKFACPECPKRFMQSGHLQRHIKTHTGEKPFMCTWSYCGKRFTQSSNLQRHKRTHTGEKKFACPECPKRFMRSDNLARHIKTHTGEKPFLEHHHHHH

B1: Probe-1 (p16 promoter) (dsDNA)
DNA 1: AAGGTTGTATCGCGGAGGAAGGAAACGGGGCGGGGGCGGATTTCT
DNA 2: AGAAATCCGCCCCCGCCCCGTTTCCTTCCTCCGCGATACAACCTT
Take B1: the binding result is reported as “binds”.
